Data reported in US20110311550A1 (Scripps Research, published 2011).
Substitutions are numbered along the chain they refer to.

B1: Fab J5 (Fab, V domains shown)
VH: VQLLEQSGAEVKKPGSSVTVSCKASGGTVSSYPITWVRQAPGQGLEWMGGTIPVFGAPKYAPKFQGRVTITADESTSTAYMELRSLRSDDTAMYYCAIVGMRGITLVGGLAMNWLDPWGQGTLVIVSS
VL: ELTQSPGTLSLSPGERATLSCRASQSVSSNYLAWYQQKPGQAPRLLIYGASSRATGIPDRFSGSGSGTDFTLSISRLEPEDFAVYYCQQYGSSPLTFGGGTKVEIKR
B2: Fab L5 (Fab, V domains shown)
VH: VQLLEQSGTEVKKPGSSVKVSCKVPGDTFRSYVITWVRQAPGQGLEWLGGILPFFGTTNLAQKFQGRVTLTADESTTTAYMELSSLRAEDTAVYYCAKAGDLAFGGVIAGGVPHLSHFDPWGQGTLVTVSS
VL: B1 VL with S28R, S73T, V84M, P94M, L95C, T96S, G99Q
B3: Fab Q1 (Fab, V domains shown)
VH: VQLLEQSGAEVRKPGASVKVSCKASGYTFTNNGLNWVRQAPGQGLEWMGWISPYNGDTDFAHKFQGRISMTTDTSTNTAYMELRSLRSDDTAVYYCARDRNSAGGTWLFRDPPPGSTFFDSWGQGSLVTVSS
VL: not shown
B4: Fab Q2 (Fab, V domains shown)
VH: B3 VH with R12K
VL: ELTQSPASLSLSPGGSATLACRASRGVNSNLAWYHQKPGQAPRLLIYSASTRATGIPGRFSGSGFGTEFTLTINNLQSDDFGVYYCQQYDDTPQITFGQGTRLDIKR
B5: Fab U1 (Fab, V domains shown)
VH: VQLLEQSGPEVKRPGTSVKMSCKISGGASITQAMSWVRQAPGQGLEWMGGITPIFGTVNYAQKILGRVTITADEDTVSLELSSLKSEDTAVYYCAREVNLKTWNLAHPNVFDVWGQGTMLTVSS
VL: ELTQSPSSLSASVGDRVTITCRASQSISSFLNWYQQKPGKAPKLLIYAASSLQSGVPPRFSGSGSGTDFTLTISSLQPEDFATYYCQQSYSTPRTFGQGTKLEIKR
B6: Fab S1 (Fab, V domains shown)
VH: VQLLEQSGAEVKKPGTSVKVSCTASGYIFTSFGISWVRQAPGQGLEWMGRIDTYNGKTNYAQKLQGRVTMTTDTYTSTAYMELRSLTSDDTAVYYCARDDCRSSTCYLAQHNWQAYYHDSWGQGTLVTVSS
VL: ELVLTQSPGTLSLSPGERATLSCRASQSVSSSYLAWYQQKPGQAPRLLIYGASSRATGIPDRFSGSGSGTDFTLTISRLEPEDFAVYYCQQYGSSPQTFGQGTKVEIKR
B7: Fab B5 (Fab, V domains shown)
VH: EVQLLESGAEVKKPGSSVKVSCRASGSPYSSYTITWVRQAPGQGLEWMGGIILMTGKANYAQKFQGRVTITADRATATAYMEMSSLTSDDTAIYYCARDPYVYAGDDVWSLSRWGQGTPVIVSS
VL: ELTQSPLSLPVIIGQPASISCSSSESLVDSDGNTYLHWFQQRPGQSPRRLIYKVSNRDAGVPDRFSGSGSGTDFTLKISRVEAEDVAVYYCMQATHWPPITFGPGTRLEVKR
B8: Fab B4 (Fab, V domains shown)
VH: VQLLEQSGAEVKKPGSSVKVSCRASGSPFSSYTITWVRQAPGQGLEWMGGIILMTGKANYAQKFQGRVTITADRSTTTAYMEMSSPTSDDTAIYYCARDPYVYAGDDVWSLSRWGQGTLVIVSP
VL: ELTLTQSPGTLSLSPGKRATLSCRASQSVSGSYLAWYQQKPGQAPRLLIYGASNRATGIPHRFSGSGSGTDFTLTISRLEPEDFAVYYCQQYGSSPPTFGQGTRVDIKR
B9: Fab B6a (Fab, V domains shown)
VH: B7 VH with E1V, V2Q, Q3L, L5E, E6Q, I121T
VL: LTQSPGTLSLSPGERATLSCRASQSVASNYVAWYQQKPGQAPRLLIYGTSYRATGIPGRFSGSGSGTDFTLTISGLEPEDFAVYYCQQYGSSPQTFGQGTKVEIKR
B10: Fab B6b (Fab, V domains shown)
VH: B7 VH with E1V, V2Q, Q3L, L5E, E6Q, I121T
VL: ELTQSPGTLSLSPGERATLSCRASQSVSRGNLAWYQQKRGQPPRLLIYGASYRATGIPDRFSGSGSGTDFTLTITKLEPEDFAVYYCQQYGHSLAFGQGTKVEIKG
B11: Fab B6c (Fab, V domains shown)
VH: B7 VH with E1V, V2Q, Q3L, L5E, E6Q, I121T
VL: not shown
B12: Fab L6 (Fab, V domains shown)
VH: B2 VH with A40S, A88S, S131A
VL: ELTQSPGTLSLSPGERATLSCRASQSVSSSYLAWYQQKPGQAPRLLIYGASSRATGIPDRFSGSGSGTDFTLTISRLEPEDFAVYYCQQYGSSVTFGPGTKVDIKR
B13: Fab E2 (antibody clone, not the glycoprotein) (Fab, V domains shown)
VH: VGLLEQSGAELKKPGSSVKVSCKPSDGTFRAYTLSWVRQAPGQTLEWLGRIMPTVGITNYAQKFQGRVTISADMSTATAYMQLSSLRPDDTAIYYCAKGPYVGLGEGFSEWGQGTLVTVSS
VL: ELTQSPLSLPVTLGQPASISCRSSQSLVYSDGNTYLIWFQQRPGQSPRRLIYNVSNRDSGVPDRFSGSGSGTDFTLKISRVEAEDLGVYYCMQGAHWPPTFGQGTRLEIKG
B14: Fab E3 (Fab, V domains shown)
VH: B13 VH with T44A, L48M, Q62R, Q82E, P88S
VL: ELVLTQSPLSLPVTLGQPASISCRSTQSLVYSDGNTYLNWFHQRPGQPPRRLIYKVSNRDSGVPERFSGSGSGTDFALKISRVEADDVGIYYCMQGAHWPPTFGGGTKVEISR
B15: Fab P6 (Fab, V domains shown)
VH: EVQLLESGGGVVQPGKSLTVSCAASGFTFSTFTMHWVRQAPGKWLEWVAVISHDGGTEHYADSVTGRFTISRDNSKNTLHMQMNSLRLEDTAVYFCARGGPAYYLYNDVLTGYYNVVGDFWGQGTLVTVSS
VL: ELIQSPGTLFLSSGERATLSCRASQSVSSSNLAWFQHKSGRAPRLLIYGASNRAPDIPDRFSGSGSGTDFTISISRLEPEDFAVYYCQRYGDSPPITFGQGTRLEIKR
B16: Fab R1 (Fab, V domains shown)
VH: VQLLEQSGAEVKKPGASVKVSCKASGYTFSIYGVAWVRQAPGQGLEWMGWISPQNGDTHSPQKFQGRLTMTTDTSTSTAYMELRSLRSDDTAVYFCARDYGVNFGGGSEHNLDYWGRGTRVTVSS
VL: ELTQSPLSLPVTPGEPASISCRSSYSLLHINGYKYLDWYLQRPGQSPQLLIYLGSNRAPGVPDRFSGSGSGTSFTLKISRVEAEDVGVYYCMQSLQAPWTFGQGTKVEMKR
B17: Fab T1 (Fab, V domains shown)
VH: EVQLLESGGGLVQPGGSLRLSCAASGFTFSRFWMHWVRQAPGKGLVWVARINSDGSSTTYADSVKGRFTISRDNAKNTLYLQMNSLRDEDTAVYFCARGGDSSSPYYYPMDVWGQGTTVAVSS
VL: not shown

What was measured:
[1] = biological target: HCV E1E2 complex, isolate H77 (genotype 1a) (hepatitis C virus genotype 1a, isolate …, UniProt P27958 192-383; P27958 384-746); assay: Fab screen after panning on E1E2 (H77)
[2] = biological target: HCV E1E2 antigen, isolate OH8 (hepatitis C virus, isolate OH8); assay: ELISA, Fab on E1E2 antigen
[3] = biological target: HCV E1E2 antigen, isolate UKN6.5.8 (hepatitis C virus, isolate UKN6.5.8); assay: ELISA, Fab on E1E2 antigen
[4] = biological target: HCV E1E2 antigen, isolate UKN1B12.16 (hepatitis C virus, isolate UKN1B12.16); assay: ELISA, Fab on E1E2 antigen
[5] = biological target: HCV E1E2 antigen, isolate CH35 (hepatitis C virus, isolate CH35); assay: ELISA, Fab on E1E2 antigen
[6] = biological target: T1, HCV E1E2 antigen, isolate JFH (hepatitis C virus, isolate JFH, UniProt Q99IB8 192-383; Q99IB8 384-750); assay: ELISA, Fab on E1E2 antigen
T1 construct: also called JFH-1

[7] = biological target: HCV E1E2 antigen, isolate UKN2B1.1 (hepatitis C virus, isolate UKN2B1.1); assay: ELISA, Fab on E1E2 antigen
[8] = biological target: HCV E1E2 antigen, isolate UKN5.15.7 (hepatitis C virus, isolate UKN5.15.7); assay: ELISA, Fab on E1E2 antigen
[9] = biological target: HCV E1E2 antigen, isolate UKN4.21.16 (hepatitis C virus, isolate UKN4.21.16); assay: ELISA, Fab on E1E2 antigen
[10] = biological target: HCV E1E2 antigen, isolate J6E3 (hepatitis C virus, isolate J6E3, UniProt P26660 192-383; P26660 384-750); assay: ELISA, Fab on E1E2 antigen
[11] = biological target: HCV E1E2 antigen, isolate UKN3A1.28c (hepatitis C virus, isolate UKN3A1.28c); assay: ELISA, Fab on E1E2 antigen

Binder | binding result [1] | OD 450 nm [2] [OD 450 nm] | OD 450 nm [3] [OD 450 nm] | OD 450 nm [4] [OD 450 nm] | OD 450 nm [5] [OD 450 nm] | OD 450 nm [6] [OD 450 nm] | OD 450 nm [7] [OD 450 nm] | OD 450 nm [8] [OD 450 nm] | OD 450 nm [9] [OD 450 nm] | OD 450 nm [10] [OD 450 nm] | OD 450 nm [11] [OD 450 nm]
B1 | binds | – | – | – | – | – | – | – | – | – | –
B2 | binds | – | – | – | – | – | – | – | – | – | –
B3 | – | 0.96 | 0.1 | 0.38 | 0.48 | 0.43 | 0.03 | 0.3 | 0.85 | 0.19 | 1.07
B4 | – | 0.43 | 0.16 | 0.21 | 0.19 | 0.18 | 0.15 | 0.05 | 0.17 | 0.25 | 0.35
B5 | – | 0.26 | 0.06 | 0.11 | 0.07 | 0.07 | 0 | 0.06 | 0 | 0.08 | 0.11
B6 | – | 1.32 | 0.08 | 0.26 | 0.79 | 0.21 | 0.03 | 0.18 | 1.12 | 0.07 | 0.55
B7 | binds | – | – | – | – | – | – | – | – | – | –
B8 | binds | – | – | – | – | – | – | – | – | – | –
B9 | binds | – | – | – | – | – | – | – | – | – | –
B10 | binds | – | – | – | – | – | – | – | – | – | –
B11 | binds | – | – | – | – | – | – | – | – | – | –
B12 | binds | – | – | – | – | – | – | – | – | – | –
B13 | binds | – | – | – | – | – | – | – | – | – | –
B14 | binds | – | – | – | – | – | – | – | – | – | –
B15 | – | 0.46 | 0.12 | 0.26 | 0.21 | 0 | 0.13 | 0.08 | 0.23 | 0.02 | 0.37
B16 | – | 0.5 | 0.05 | 0.03 | 0.15 | 0 | 0.02 | 0 | 0.01 | 0 | 0
B17 | – | 0.15 | 0.01 | 0 | 0 | 0 | 0 | 0.07 | 0.08 | 0 | 0
